Test results reported in US7402314B2, “In vivo activation of tumor-specific cytotoxic T cells” (The Scripps Research Institute, priority 1995, dated 2008).

Biological target: A2.1/K^b (UniProt P01901+P04439, D140Y/D185E/D98H/E176V/G131W/I119V/I121R/I166T/N151K/N90K/Q86G/Q94H/R138H/R169H)
Type: binding, human-mouse chimeric

Sequence	inhibition of binding of the influenza A-derived peptide to A2.1/K^b by Her-2/Neu-derived peptides	binding of test peptide to A2.1/K^b (percent specific lysis of EA2/K^b targets by influenza A-specific CTL)
ILLVVVLGV [Peptide H9]	binding at the highest efficiency	–
ILKEPVHGV [HIV-1 RT 476-484, reference compound]	–	efficiently bound to A2.1/K^b
